Source: publication PMC1277818, “Substrate specificity analysis of protein kinase complex Dbf2-Mob1 by peptide library and proteome array screening” (BMC Biochemistry, 2005)

T1: FHHDbf2-H6Mob1TM9 (Saccharomyces cerevisiae, UniProt P22204+P40484)
T1 construct: made in house; host or cells: Hi5 insect cells (baculovirus)
T1 sequence (P22204 1-572): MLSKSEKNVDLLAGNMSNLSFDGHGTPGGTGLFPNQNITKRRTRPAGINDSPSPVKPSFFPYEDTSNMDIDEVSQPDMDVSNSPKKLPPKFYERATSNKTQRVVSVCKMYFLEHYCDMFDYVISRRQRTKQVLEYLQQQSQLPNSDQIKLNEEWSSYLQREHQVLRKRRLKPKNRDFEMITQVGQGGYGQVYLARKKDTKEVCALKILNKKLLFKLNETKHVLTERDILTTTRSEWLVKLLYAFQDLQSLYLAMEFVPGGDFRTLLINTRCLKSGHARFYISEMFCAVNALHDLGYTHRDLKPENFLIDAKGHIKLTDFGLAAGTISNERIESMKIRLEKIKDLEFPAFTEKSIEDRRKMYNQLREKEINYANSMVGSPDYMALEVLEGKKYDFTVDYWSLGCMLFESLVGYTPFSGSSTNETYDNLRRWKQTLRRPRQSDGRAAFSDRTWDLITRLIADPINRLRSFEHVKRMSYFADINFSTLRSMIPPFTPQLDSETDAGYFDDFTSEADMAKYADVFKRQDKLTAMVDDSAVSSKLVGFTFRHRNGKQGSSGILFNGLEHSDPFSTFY
T1 sequence (P40484 1-314 partner): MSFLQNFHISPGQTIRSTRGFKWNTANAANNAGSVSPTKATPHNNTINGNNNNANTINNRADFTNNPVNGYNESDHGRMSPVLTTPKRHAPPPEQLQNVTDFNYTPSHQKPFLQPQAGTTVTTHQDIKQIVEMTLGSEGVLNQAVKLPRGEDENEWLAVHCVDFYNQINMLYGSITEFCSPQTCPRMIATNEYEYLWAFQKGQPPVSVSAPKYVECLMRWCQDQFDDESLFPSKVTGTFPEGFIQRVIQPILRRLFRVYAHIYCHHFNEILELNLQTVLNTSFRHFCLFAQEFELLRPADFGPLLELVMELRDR

B1: YKL140W: GST fusion yeast protein on proteome chip (protein, UniProt P34163 1-548, looked up)
Sterol esterase TGL1: MYFPFLGRLSITDYIIVVLVYIESIISSVLKLIPQPMINLFEWLINFSTSSDDNTIEEKLRSAPTIHEMCAIFDISVEDHLVRTEDNYILTLHRIPPISKNRFNNKVVYLHHGLLMCSDVWCCNIERHKNLPFVLHDLGYDVWMGNNRGNKYSTAHLNKPPKSNKFWDFSIDEFAFFDIPNSIEFILDITKVDKVICIGFSQGSAQMFAAFSLSEKLNRKVSHFIAIAPAMTPKGLHNRIVDTLAKSSPGFMYLFFGRKIVLPSAVIWQRTLHPTLFNLCIDIANKILFNWKSFNILPRQKIASYAKLYSTTSVKSIVHWFQILRSQKFQMFEESDNMLNSLTRPYQIANFPTRTNIKIPILLIYGGIDSLVDIDVMKKNLPFNSVFDVKVDNYEHLDLIWGKDADTLVIAKVLRFIEFFNPGNVSVKTNQLLPSASLVEELPSTTWKTTHPTHGLSYRTHSADRSPLSVQADEADEVHNADNSRFLRRVFSTSAIDEDNENEHQDDTEDQIHKEQQRRLSAYLESSKDLRQLDANSSTTALDALNKE
modifications: GST tag
notes: GST fusion yeast protein on proteome chip
B2: YDL070W: GST fusion yeast protein on proteome chip (protein, UniProt Q07442 1-638, looked up)
Bromodomain-containing factor …: MSRTNMDTRHAHSALLAAPQSATANSRSSNSSSESSSNKNNINVGVGDDSGNVSAVSIDDGPHFRDIFHYGHEENYKLASSGITNLNSSSHAHQTLSPISISNASTPESFPEHPLGLERETEPALEAEMEAEELPPHQSKYLLSSIKATKRLKDARPFLKPVDPIALNIPHYFNYVQTPMDLSLIETKLQGNVYHSVEQVTSDFKTMVDNCLNFNGPESSISSMAKRIQKYFEKKLSAMPPRVLPASALKKTSRNRKKNEDMDSPLVIRRSVSTTNDNIGESGNREGVSGGRPKRTIHPPKSKDLFDIYENSKPKSKTLQKKFRTCLKILKVLMSKKNSDINFPFLQPVDPIALNLPNYFDVVKNPMDLGTISNNLMNWKYKTIDQFVDDLNLVFYNCFQFNPEGNEVHSMGKKLKELFNFHWLENQDILNEIETDSDLEEDNYSSSYSSDDEYDDEDINENDITNPAIQYLEQKLKKMEVELQQLKRQELSKLSKERKRKHLGKTLLRRKAMKHSVDDLKKSITDKINELSDLEMNGMIRIIKNSLPADEILTSNEDEIEIDLDILDEATIARIYERYFEKKNNNNSKRKLSGNYSTAPTNKKKKTLKFLEKDEIINNNNYSDSEEDSSDSSDSDSD
modifications: GST fusion
notes: as for B1
B3: YBL106C: GST fusion yeast protein on proteome chip (protein, UniProt P38163 1-1010, looked up)
Lethal(2) giant larvae …: MFKKSRHLKNVSNAIKSARVHDVSNGINSKFFDTKKICTYGINGRITVTTFDYTQSLLAVATTAGEIHVYGQKQIEVVFTLKNRPQIKHMRFIKGIYLIAVDEKSNIIVLSVHSKQILTTVFCPNSITCIETDPSLDWMLIGLESGSILIYDVDRNQMSKLKIENFQKSVFLPKERLSPVISIQWNPRDIGTILISYEHITVIYSFIDYKVKQHFFYQLEPYAPGGDLSTNIEKKRTPKVIQSLYHPNSLHILTVHEDNSLVFWDVNSGKLIHARSIFETHVNFPNPALKDCSFTETPAIFKVSWLCQRNPEYTSLLIATKATENPCLPQEITMIDLGGTPMYSVTSFDAMSKYYAKPVQQKLFSLIGKAPLINFLPLPKASPYFGGCHDTNLILLLLEDGELETLIYPAGSFSSKASIFPRSLAWVRPTVTTCIAQSVQKNLWLGMMTIAQSESFLKGGIPATRNIRRHETRSALLTGHSNGSVRIWDASHSEVTDNAVFEVNTAKVLNRATNLAIKNISFASETLELAVSSEVGDVILFKFETNKFYGQLPKSDALQLKFSRFSLDDSKTILVDVSDRGPTNVKQGFIPSTVIHAKKGAVSAIMNSNIGFVAVGFIEGTLIILDRRGPAIIFNENIRVISKAGSSYVSTVHFCVMEYGDDGFSSILMLCGTDIGELMTFKILPATNGRFEVKFTDATKTNNQGKILGINSFAKDTGYSCSATISKMQGLSKGIAIPGFVTISGANDIRLVSPGKSKDTHALFKYPIATSGLSFIPIIDGKGERKLSTIMIVLLINGDIKVLTVPELKEVKNLRCPVPLSAQYVENSSILENGDIVIRTGKFQASLISVLNESATGTNHTADISQHTPIDTLYNPDLKIGYRPQVNSLQWARGTIYCTPYQLDELLGGIERPESKYEESAIARGCISSSSSNAARKLPPGTEDHRYARPVRSSGRSNGYGVLKSVSRAIETRLDTVETTINDYATTMGQTMNDAMEETGRDMMKSAVGF
modifications: GST tag
notes: as for B1
B4: YNL125C: GST fusion yeast protein on proteome chip (protein, UniProt P53918 1-673, looked up)
Uncharacterized transporter …: MSTHSNDYFSASSGMVSETSSEVSSINSSQPVSFSKASIAAPVPCSDLHSTKSNDASRKLSISRTLTNRLNDIKKAVDDDNLQTEENSADVNKILESRFDVADAIRLQHNESVQSKLNIPVTHTTTAGASLSAPSSSAFSASSIQNDTTEHKASMDSKLMRNRLYPASTKHSGKDLEAQGITEFEPDEPTVKKVFTNKSTGQLELPPDGGYGWVVTFCVFLTMFSTWGCNASFGVDLAYYLNHDTYPGASKYDYALIAGLTVFLGQLLSPLVMALMRIIGLRTTMLFGDAVMLAAYLLASFTTKLWQLYVTQGFMVGCSISLIFVPATTVLPGWFLKKRAVAMGVSLLGTGAGGVVYGLATNKMLSDFGNTRWCLRIIGISCSISVLVAIALLKERNPTPAIGLKSPRAMFEQLKAMFSLKVITKPFVVLIALWFMFALFAYNMMVFTLSSYAISKGLSSHDASTLTAILNGSQSIGRPLMGLAGDKFGRANVTIVLTTLLTIYMFAFWIPAHTFVQLIFFSILVGSCVGVANVMNTVLIADMVKPEEFLPAWAFVNYCGAPFLLVCEVIAQALTVEKDKSNPYLHAQIFCGCCFIAALILISILREYSIRMKLTERQAMTNEKLKEWKASEYDTDSADEDWGKLKERKTKYDLLLGPGIKKYFLRMVYPMKV
modifications: GST fusion
notes: as for B1
B5: YCR105W: GST fusion yeast protein on proteome chip (protein, UniProt P25377 1-361, looked up)
NADP-dependent alcohol …: MLYPEKFQGIGISNAKDWKHPKLVSFDPKPFGDHDVDVEIEACGICGSDFHIAVGNWGPVPENQILGHEIIGRVVKVGSKCHTGVKIGDRVGVGAQALACFECERCKSDNEQYCTNDHVLTMWTPYKDGYISQGGFASHVRLHEHFAIQIPENIPSPLAAPLLCGGITVFSPLLRNGCGPGKRVGIVGIGGIGHMGILLAKAMGAEVYAFSRGHSKREDSMKLGADHYIAMLEDKGWTEQYSNALDLLVVCSSSLSKVNFDSIVKIMKIGGSIVSIAAPEVNEKLVLKPLGLMGVSISSSAIGSRKEIEQLLKLVSEKNVKIWVEKLPISEEGVSHAFTRMESGDVKYRFTLVDYDKKFHK
modifications: GST fusion
notes: as for B1
B6: YMR072W: GST fusion yeast protein on proteome chip (protein, UniProt Q02486 27-183, looked up)
ARS-binding factor 2, …: KASKRTQLRNELIKQGPKRPTSAYFLYLQDHRSQFVKENPTLRPAEISKIAGEKWQNLEADIKEKYISERKKLYSEYQKAKKEFDEKLPPKKPAGPFIKYANEVRSQVFAQHPDKSQLDLMKIIGDKWQSLDQSIKDKYIQEYKKAIQEYNARYPLN
modifications: GST tag
notes: as for B1
B7: YDL002C: GST fusion yeast protein on proteome chip (protein, UniProt Q03435 2-203, looked up)
Non-histone protein 10: SVEEKKRRLEELKDQNVVLGLAIQRSRLSVKRLKLEYGVLLERLESRIELDPELNCEDPLPTLASFKQELLTKPFRKSKTKRHKVKERDPNMPKRPTNAYLLYCEMNKERIRQNGSLDVTRDLAEGWKNLNEQDRKPYYKLYSEDRERYQMEMEIYNKKISNIDADDDKEENEQKIKNNEEGSSTKVADSKGGEDGSLVSSN
modifications: GST fusion
notes: as for B1

molecular target: T1, FHHDbf2-H6Mob1TM9; assay: Yeast proteome chip assay; assay type: biochemical; details: Table 3; GST fusion proteins on proteome chip, [γ-33P]ATP, chips in duplicate, computer analysis
Method: The relatively low sequence complexity of the Dbf2 phosphorylation motif diminished the power of using genome-wide bioinformatics screens to identify putative substrates. Accordingly, we carried out a proteome array screen to identify putative yeast substrates. […] After taking into account the proteins phosphorylated in the negative controls, 67 proteins were determined to be putative Dbf2-Mob1 substrates (Table 3).
Yeast proteome microarrays were prepared as previously described. Overexpressed GST-tagged yeast proteins were purified from ~4,400 yeast strains and spotted on slides. To determine the optimal amount of kinase to use for probing proteome chips, we performed trial assays as described (J. Ptacek et al., submitted). […] The full proteome array was probed with 4 μl ^FHHDbf2-^H6Mob1^TM9 in 200 μl of DKB supplemented with [γ-^33P]ATP. As a control, ^FHHDbf2(N305A)-^H6Mob1^TM9 was used to probe the proteome array. […] To control for autophosphorylated proteins, the proteome array was probed with 200 μl of DKB supplemented with [γ-^33P]ATP. Proteome chips were assayed in duplicate in each case. Data analysis was performed as described (J. Ptacek et al., submitted). Briefly, signals were analyzed by a computer algorithm designed to normalize background and identify signals as positive if 3 of 4 spots (each protein is spotted twice on each slide and each kinase or control was tested on 2 slides) were 2 standard deviations above background and the fourth spot was 1.5 standard deviations above background.

First: B1
Second: B2
The “Slide Signal (after normalization)” value of the first is higher: 0.6321 for the first, 0.6162 for the second.

Compared with B3, B4 is lower in “Slide Signal (after normalization)” value: 0.5988 for the first, 0.5694 for the second.

Going from B5 to B6, the “Slide Signal (after normalization)” value rises from 0.6146 to 0.7585.

In the case of B7, the “Slide Signal (after normalization)” value is reported as 0.8102.
